In assay [1] the target is T1, human α5β1 integrin (human, UniProt P08648 42-1049; P05556 21-798). Description: cell-based or functional assay.
Assay [2] deals with T1, human α5β1 integrin. Nature of the assay: FACS titration on α5β1-positive HUVEC cells, monovalent Fab.
In assay [3] the target is T1, human α5β1 integrin. Nature of the assay: cell-based or functional assay. This is another data set of the same source.
Assay [4] concerns the target T2, β1-integrin chain on HT29 wt cells (α5-chain negative) (human, UniProt P05556 21-798).
T2 construct: whole, on cells; Negative cell control: β1 present at high density, α5 absent
Nature of the assay: FACS, HT29 cells (α5-chain negative). (A flow cytometer gives signals particle by particle.)

The target of assay [5] is T1, human α5β1 integrin. Nature of the assay: FACS titration on α5β1-positive HUVEC cells, IgG.
The target in assay [6] is T2, β1-integrin chain on HT29 wt cells …. Description: immunoprecipitation from NP40 lysate of surface-biotinylated HT29 wt cells; streptavidin-AP blot. As for the experimental part:
Surface-biotinylated NP40-lysates of HT29α5 and HT29 wt were incubated with Fab coupled to magnetic Dyna beads. The immunoprecipitates were transferred to PVDF-membranes and analysed with streptavidin alkaline phosphatase (AP).
IIA1 was used as a reference antibody. After intensive washing the precipitates were boiled in SDS-PAGE sample buffer under reducing conditions, blotted to PVDF-membranes and probed with streptavidine-AP. All anti-α5β1 integrin antibodies specifically precipitated a protein double kband of […] which corresponds to the expected molecular weight of the integrin chains α5 and β1 (FIG. 11) and was not found in the HT29 wt cell lysate. The same double band was found with IIA1.

The target in assay [7] is T1, human α5β1 integrin. Description: cell-based or functional assay. This is another data set of the same source.

“And” between values parts separate entries of the source, which are not always exact repeats. Equal values may be shown once.

What is called Kd is the concentration at which binding is half-saturated. A higher Kd goes with a looser complex.

T1 sequence (P08648 42-1049, chain 1 of 2): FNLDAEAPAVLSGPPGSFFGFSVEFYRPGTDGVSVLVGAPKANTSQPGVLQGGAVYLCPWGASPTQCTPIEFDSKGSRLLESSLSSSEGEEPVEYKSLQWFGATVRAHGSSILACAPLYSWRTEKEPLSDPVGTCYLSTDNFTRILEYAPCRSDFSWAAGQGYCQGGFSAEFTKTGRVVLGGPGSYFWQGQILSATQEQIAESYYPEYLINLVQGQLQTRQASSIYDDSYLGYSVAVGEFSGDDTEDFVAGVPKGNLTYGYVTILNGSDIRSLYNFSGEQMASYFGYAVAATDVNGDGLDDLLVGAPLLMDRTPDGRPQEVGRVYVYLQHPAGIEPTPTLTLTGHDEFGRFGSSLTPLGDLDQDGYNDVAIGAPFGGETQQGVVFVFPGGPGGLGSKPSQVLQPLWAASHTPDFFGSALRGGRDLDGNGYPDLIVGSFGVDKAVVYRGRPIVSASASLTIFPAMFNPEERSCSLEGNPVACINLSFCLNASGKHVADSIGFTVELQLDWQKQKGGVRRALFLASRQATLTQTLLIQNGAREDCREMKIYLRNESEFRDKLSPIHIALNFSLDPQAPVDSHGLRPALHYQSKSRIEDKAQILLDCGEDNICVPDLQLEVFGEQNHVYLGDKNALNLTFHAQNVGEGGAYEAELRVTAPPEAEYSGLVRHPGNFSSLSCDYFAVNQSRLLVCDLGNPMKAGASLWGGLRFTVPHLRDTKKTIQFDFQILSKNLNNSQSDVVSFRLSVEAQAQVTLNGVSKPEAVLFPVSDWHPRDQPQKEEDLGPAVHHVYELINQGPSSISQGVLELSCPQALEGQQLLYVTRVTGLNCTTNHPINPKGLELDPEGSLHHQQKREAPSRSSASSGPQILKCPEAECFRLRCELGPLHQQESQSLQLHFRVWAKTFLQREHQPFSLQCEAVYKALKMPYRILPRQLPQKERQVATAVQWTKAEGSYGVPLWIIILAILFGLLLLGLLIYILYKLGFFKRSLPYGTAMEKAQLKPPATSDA
T1 sequence (P05556 21-798, chain 2 of 2): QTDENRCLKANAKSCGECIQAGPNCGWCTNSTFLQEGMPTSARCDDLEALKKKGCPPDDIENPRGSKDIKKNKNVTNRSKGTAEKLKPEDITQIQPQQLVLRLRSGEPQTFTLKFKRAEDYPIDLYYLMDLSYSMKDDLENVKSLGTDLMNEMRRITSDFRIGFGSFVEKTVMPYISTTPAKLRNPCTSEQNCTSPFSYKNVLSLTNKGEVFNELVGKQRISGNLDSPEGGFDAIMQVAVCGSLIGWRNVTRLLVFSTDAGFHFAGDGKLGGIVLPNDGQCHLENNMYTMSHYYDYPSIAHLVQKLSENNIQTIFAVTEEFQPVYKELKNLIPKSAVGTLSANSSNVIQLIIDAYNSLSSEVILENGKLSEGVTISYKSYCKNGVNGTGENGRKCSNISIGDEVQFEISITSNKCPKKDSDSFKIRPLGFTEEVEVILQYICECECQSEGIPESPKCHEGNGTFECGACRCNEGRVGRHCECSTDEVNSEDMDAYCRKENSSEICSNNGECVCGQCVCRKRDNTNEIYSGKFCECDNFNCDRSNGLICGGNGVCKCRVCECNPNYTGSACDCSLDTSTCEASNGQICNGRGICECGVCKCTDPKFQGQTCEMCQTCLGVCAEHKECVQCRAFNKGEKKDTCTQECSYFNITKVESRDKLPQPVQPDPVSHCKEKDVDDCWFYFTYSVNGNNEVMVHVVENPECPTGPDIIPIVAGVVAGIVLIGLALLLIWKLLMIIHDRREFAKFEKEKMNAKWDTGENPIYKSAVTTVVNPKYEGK
T2 sequence (P05556 21-798): as the sequence (P05556 21-798, chain 2 of 2) above

B1: MOR04624 Fab (Fab, V domains shown)
VH: QVQLVESGGGLVQPGGSLRLSCAASGFTFSSYGMSWVRQAPGKGLEWVSSISYSDSNTYYADSVKGRFTISRDNSKNTLYLQMNSLRAEDTAVYYCARGLGDYGHHHGLSGIFDYWGQGTLVTVSS
VL: DIQMTQSPSSLSASVGDRVTITCRASQGISSNLNWYQQKPGKAPKLLIYAASNLQSGPSRFSGSGSGTDFTLTISSLQPEDFAVYYCQQYSDQSYTFGQGTKVEIKR
notes: HuCAL GOLD monovalent Fab, kappa
Regarding B1, in the assay with human α5β1 integrin [1], the “IC50, XTT-proliferation assay on HUVEC” value is 11.2 µg/ml and 225 nM. In the assay with human α5β1 integrin [2], this molecule registered a Kd of 7.5 nM.

B2: MOR04977 IgG4-Pro (antibody, V domains shown)
VH: QVQLVESGGGLVQPGGSLRLSCAASGFTFSSYGMSWVRQAPGKGLEWVSFIEPKWRGGATHYAASVKGRFTISRDNSKNTLYLQMNSLRAEDTAVYYCARGLGDYGHHHGLSGIFDYWGQGTLVTVSS
VL: DIQMTQSPSSLSASVGDRVTITCRASQGISSNLNWYQQKPGKAPKLLIYAASNLQSGPSRFSGSGSGTDFTLTISSLQPEDFATYYCQQYSSNPQTFGQGTKVEIKR
On to B2, for which the “IC50, transwell migration of HUVEC towards fibronectin” value (“IC50, transwell migration” below) with human α5β1 integrin [3] turned out to be 1 µg/mL.

B3: MOR04624 IgG1 (antibody, V domains shown)
VH: QVQLVESGGGLVQPGGSLRLSCAASGFTFSSYGMSWVRQAPGKGLEWVSSISYSDSNTYYADSVKGRFTISRDNSKNTLYLQMNSLRAEDTAVYYCARGLGDYGHHHGLSGIFDYWGQGTLVTVSS
VL: DIQMTQSPSSLSASVGDRVTITCRASQGISSNLNWYQQKPGKAPKLLIYAASNLQSGPSRFSGSGSGTDFTLTISSLQPEDFAVYYCQQYSDQSYTFGQGTKVEIKR
notes: Human IgG1 kappa (MorphoSys HuCAL IgG Vector Kit); also called IgG1 MOR04624
On to B3, for which the binding result in assay [4] is “no binding”. The molecule further gave a Kd in the assay with human α5β1 integrin [5] of 3.1 nM.

B4: MOR04974 IgG4-Pro (antibody, V domains shown)
VH: QVQLVESGGGLVQPGGSLRLSCAASGFTFSSYGMSWVRQAPGKGLEWVSGIRAKQSGYATDYAAPVKGRFTISRDNSKNTLYLGMNSLRAEDTAVYYCARGLGDYGHHHGLSGIFDYWGQGTLVTVSS
VL: DIQMTGSPSSLSASVGDRVTITCRASQGISSNLNWYQQKPGKAPKLLIYAASNLQSGPSRFSGSGSGTDFTLTISSLQPEDFATYYCQQYASPRQTFGQGTKVEIKR
For B4, in the assay with human α5β1 integrin [3], the “IC50, transwell migration” value was 1 µg/mL.

B5: MOR04974 Fab (Fab, V domains shown)
VH: QVQLVESGGGLVQPGGSLRLSCAASGFTFSSYGMSWVRQAPGKGLEWVSGIRAKQSGYATDYAAPVKGRFTISRDNSKNTLYLQMNSLRAEDTAVYYCARGLGDYGHHHGLSGIFDYWGQGTLVTVSS
VL: DIQMTQSPSSLSASVGDRVTITCRASQGISSNLNWYQQKPGKAPKLLIYAASNLQSGPSRFSGSGSGTDFTLTISSLQPEDFATYYCQQYASPRQTFGQGTKVEIKR
On to B5, for which, in the assay with human α5β1 integrin [1], the “IC50, XTT-proliferation assay on HUVEC” value is 0.06 µg/ml and 1.2 nM. Moreover, in assay [6], the binding result is given as “no binding”.

B6: MOR04975 IgG4-Pro (antibody, V domains shown)
VH: QVQLVESGGGLVQPGGSLRLSCAASGFTFSSYGMSWVRQAPGKGLEWVSGIRAKQSGYATDYAAPVKGRFTISRDNSKNTLYLGMNSLRAEDTAVYYCARGLGDYGHHHGLSGIFDYWGQGTLVTVSS
VL: DIQMTQSPSSLSASVGDNVTITCRASQGISSNLNWYQQKPGKAPKLLIYAASNLQSGPSRFSGSGSGTDFTLTISSLQPEDFATYYCQQYEFGIQTFGQGTKVEIKR
In the case of B6, the “IC50, transwell migration” value in the assay with human α5β1 integrin [3] turned out to be 1.5 µg/mL.

B7: MOR04975 Fab (Fab, V domains shown)
VH: QVQLVESGGGLVQPGGSLRLSCAASGFTFSSYGMSWVRQAPGKGLEWVSGIRAKQSGYATDYAAPVKGRFTISRDNSKNTLYLQMNSLRAEDTAVYYCARGLGDYGHHHGLSGIFDYWGQGTLVTVSS
VL: DIQMTQSPSSLSASVGDRVTITCRASQGISSNLNWYQQKPGKAPKLLIYAASNLQSGPSRFSGSGSGTDFTLTISSLQPEDFATYYCQQYEFGIQTFGQGTKVEIKR
notes: also called MQR04975
For B7, in the assay with human α5β1 integrin [1], the “IC50, XTT-proliferation assay on HUVEC” value is 0.09 µg/ml and 1.8 nM. The binding result in assay [6] is on record as “no binding”.

B8: MOR04977 IgG1 (antibody, V domains shown)
VH: QVQLVESGGGLVQPGGSLRLSCAASGFTFSSYGMSWVRQAPGKGLEWVSFIEPKWRGGATHYAASVKGRFTISRDNSKNTLYLQMNSLRAEDTAVYYCARGLGDYGHHHGLSGIFDYWGQGTLVTVSS
VL: DIQMTQSPSSLSASVGDRVTITCRASQGISSNLNWYQQKPGKAPKLLIYAASNLQSGPSRFSGSGSGTDFTLTISSLQPEDFATYYCQQYSSNPQTFGQGTKVEIKR
B8: in the assay with human α5β1 integrin [7], the “EC50, inhibition of HUVEC adhesion to fibronectin” value (shortened to “EC50, inhibition of HUVEC adhesion”) is 0.4 µg/ml and 2.6 nM. The binding result in assay [4] is listed as “no binding”.

B9: MOR04985 Fab (Fab, V domains shown)
VH: QVQLVESGGGLVQPGGSLRLSCAASGFTFSSYGMSWVRQAPGKGLEWVSGIRAKQSGYATDYAAPVKGRFTISRDNSKNTLYLQMNSLRAEDTAVYYCARGLGDYGHHHGLSGIFDYWGQGTLVTVSS
VL: DIQMTQSPSSLSASVGDRVTITCRASQGISSNLNWYQQKPGKAPKLLIYAASNLQSGPSRFSGSGSGTDFTLTISSLQPEDFAVYYCQQYSDQSYTFGQGTKVEIKR
As to B9, the “IC50, XTT-proliferation assay on HUVEC” value with human α5β1 integrin [1] was 0.09 µg/ml and 1.8 nM. The binding result in assay [6] was “no binding”.

B10: MOR04985 IgG1 (antibody, V domains shown)
VH: QVQLVESGGGLVQPGGSLRLSCAASGFTFSSYGMSWVRQAPGKGLEWVSGIRAKQSGYATDYAAPVKGRFTISRDNSKNTLYLQMNSLRAEDTAVYYCARGLGDYGHHHGLSGIFDYWGQGTLVTVSS
VL: DIQMTQSPSSLSASVGDRVTITCRASQGISSNLNWYQQKPGKAPKLLIYAASNLQSGPSRFSGSGSGTDFTLTISSLQPEDFAVYYCQQYSDQSYTFGQGTKVEIKR
In the case of B10, the “EC50, inhibition of HUVEC adhesion” value with human α5β1 integrin [7] was 0.5 µg/ml and 3.3 nM. For the same molecule, in assay [4], the binding result was “no binding”.

B11: MOR04977 Fab (Fab, V domains shown)
VH: QVQLVESGGGLVQPGGSLRLSCAASGFTFSSYGMSWVRQAPGKGLEWVSFIEPKWRGGATHYAASVKGRFTISRDNSKNTLYLQMNSLRAEDTAVYYCARGLGDYGHHHGLSGIFDYWGQGTLVTVSS
VL: DIQMTQSPSSLSASVGDRVTITCRASQGISSNLNWYQQKPGKAPKLLIYAASNLQSGPSRFSGSGSGTDFTLTISSLQPEDFATYYCQQYSSNPQTFGQGTKVEIKR
On to B11, for which the “IC50, XTT-proliferation assay on HUVEC” value with human α5β1 integrin [1] was 0.09 µg/ml and 1.9 nM. The binding result in assay [6] was “no binding”.

B12: MOR04975 IgG1 (antibody, V domains shown)
VH: QVQLVESGGGLVQPGGSLRLSCAASGFTFSSYGMSWVRQAPGKGLEWVSGIRAKQSGYATDYAAPVKGRFTISRDNSKNTLYLQMNSLRAEDTAVYYCARGLGDYGHHHGLSGIFDYWGQGTLVTVSS
VL: DIQMTQSPSSLSASVGDRVTITCRASQGISSNLNWYQQKPGKAPKLLIYAASNLQSGPSRFSGSGSGTDFTLTISSLQPEDFATYYCQQYEFGIQTFGQGTKVEIKR
Consider B12, for which, in the assay with human α5β1 integrin [7], the “EC50, inhibition of HUVEC adhesion” value was 0.33 µg/ml and 2 nM. For the same molecule, the binding result in assay [4] is “no binding”.

B13: MOR04055 Fab (Fab, V domains shown)
VH: QVQLVESGGGLVQPGGSLRLSCAASGFTFSNYAMNWVRQAPGKGLEWVSRISYSGSDTYYADSVKGRFTISRDNSKNTLYLQMNSLRAEDTAVYYCAREGEFGFMYSTLVFDSWGQGTLVTVSS
VL: DIELTQPPSVSVAPGQTARISCSGDSIGEQYAHWYQQKPGQAPVLVIYDDNKRPSGIPERFSGSNSGNTATLTISGTQAEDEADYYCGSYTLTNTASVFGGGTKLTVLG
Turning to B13, in the assay with human α5β1 integrin [2], the Kd came to 0.9 nM.

B14: MOR04055 IgG (antibody, V domains shown)
VH: QVQLVESGGGLVQPGGSLRLSCAASGFTFSNYAMNWVRQAPGKGLEWVSRISYSGSDTYYADSVKGRFTISRDNSKNTLYLQMNSLRAEDTAVYYCAREGEFGFMYSTLVFDSWGQGTLVTVSS
VL: DIELTQPPSVSVAPGQTARISCSGDSIGEQYAHWYQQKPGQAPVLVIYDDNKRPSGIPERFSGSNSGNTATLTISGTQAEDEADYYCGSYTLTNTASVFGGGTKLTVLG
The molecule B14 came in with a Kd in the assay with human α5β1 integrin [5] of 0.5 nM.

B15: MOR04971 Fab (Fab, V domains shown)
VH: QVQLVESGGGLVQPGGSLRLSCAASGFTFSNYAMNWVRQAPGKGLEWVSAIHDNGHTYYPDSVKGRFTISRDNSKNTLYLQMNSLRAEDTAVYYCAREGEFGFMYSTLVFDSWGQGTLVTVSS
VL: DIELTQPPSVSVAPGQTARISCSGDSIGEQYAHWYQQKPGQAPVLVIYDDNKRPSGIPERFSGSNSGNTATLTISGTQAEDEADYYCSSYTYSSDASVFGGGTKLTVLG
On to B15, for which the “IC50, XTT-proliferation assay on HUVEC” value with human α5β1 integrin [1] is 0.21 µg/ml and 4.3 nM. The binding result in assay [6] is “no binding”.

The record behind these values is patent US20090081207A1 (published 2009).
